From patent publication US20100215575A1, “Systemic Administration of Chlorotoxin Agents for the Diagnosis and Treatment of Tumors” (TRANSMOLECULAR, INC., priority 2007, published 2010)

Test system: D54-MG xenografted human glioma tumors
Assay: Brain tumor targeting after intravenous injection (D54-MG/SCID mouse model)
Format: in vivo
Details: tail vein injection, measured after 24 hours
Text: These experiments consisted of five research studies utilizing the […] mouse model.

Question: For “125I-EGF: 125I-labeled EGF used as a control; EGF receptor is up-regulated in these tumors”, which “Targeting of brain tumor” value is on record?
Answer: did not localize to the brain tumors to any appreciable extent
